B1: EPB41L3 (parent)
chain: KKFLTLGSKFRYSGRTQAQTRRAS
B2: LOXL2 (parent)
chain: RLLRFSSQIHNNGQSDFRPKNGRH
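Note: lentivirally expressed fusions sorted by FACS into six bins by GFP to DsRed ratio, PSI derived from sequencing read proportions per bin multiplied by bin number.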

The variants in the first data set derive from B1. The data set is described as follows: protein stability index of a GFP-peptide fusion (GPS, HEK-293T) (PSI 1-6); higher = more stable. Conditions: c terminus: a fixed tail appended.
On to KKFLTLGFKFRYSGRTQAQTRRAS [S8F], for which the protein stability index was 2.43.

For KKFLTLGGKFRYSGRTQAQTRRAS [S8G], the protein stability index was 2.81.

On to KKFLTLGPKFRYSGRTQAQTRRAS [S8P], for which the protein stability index is 2.16.

As for KKFLTLGSKFRYSGRTQAQTRRCS [A23C], the protein stability index is 2.24.

KKFLTLGSKFRYSGRTQAQTRRTS [A23T]: the protein stability index is 2.92.

For KKFLTLGSKFRYSGRTQQQTRRAS [A18Q], the protein stability index turned out to be 2.73.

On to KKFLTLGSKFRYSGRTQMQTRRAS [A18M], for which the protein stability index worked out at 2.77.

With KKFLTLGSKFRYSGRTQAQTMRAS [R21M], the protein stability index worked out at 1.86.

In the case of KKFLTLGSKFRYSGRTQAQTARAS [R21A], the protein stability index was 1.96.

As to KKFLTLGSKFRYSGRTQAQTKRAS [R21K], the protein stability index came out at 3.75.

Take KKFLTLGSKFRYSGRTQAQTFRAS [R21F]: the protein stability index is 1.98.

KKFLTLGSKFLYSGRTQAQTRRAS [R11L]: the protein stability index was found to be 2.43.

For KKFLTLGSKFSYSGRTQAQTRRAS [R11S], the protein stability index came to 3.4.

On to KKFLTLGSKFKYSGRTQAQTRRAS [R11K], for which the protein stability index worked out at 2.92.

Turning to KKKLTLGSKFRYSGRTQAQTRRAS [F3K], the protein stability index turned out to be 3.65.

For KKVLTLGSKFRYSGRTQAQTRRAS [F3V], the protein stability index was determined as 3.07.

In the case of KKFLTLGSKFRYSGRTQAQKRRAS [T20K], the protein stability index was 3.2.

Consider KKFLTLGSKFRYSGRTQAQMRRAS [T20M], for which the protein stability index worked out at 2.32.

Turning to KKFLTLGSKFRYSGRTQAQFRRAS [T20F], the protein stability index worked out at 2.28.

As for KKFATLGSKFRYSGRTQAQTRRAS [L4A], the protein stability index was found to be 2.98.

For the variant KKFTTLGSKFRYSGRTQAQTRRAS [L4T], the protein stability index came to 3.11.

With KKFGTLGSKFRYSGRTQAQTRRAS [L4G], the protein stability index came to 3.36.

Consider KKFRTLGSKFRYSGRTQAQTRRAS [L4R], for which the protein stability index is 3.13.

In the case of KKFVTLGSKFRYSGRTQAQTRRAS [L4V], the protein stability index is 3.02.

KKFNTLGSKFRYSGRTQAQTRRAS [L4N]: the protein stability index is 3.44.

Turning to KKFMTLGSKFRYSGRTQAQTRRAS [L4M], the protein stability index was determined as 3.19.

In the case of KKFDTLGSKFRYSGRTQAQTRRAS [L4D], the protein stability index is 3.63.

With KKFLTLGSKFRYSGLTQAQTRRAS [R15L], the protein stability index is 2.64.

For the variant KKFLTLGSKFRYSGFTQAQTRRAS [R15F], the protein stability index amounted to 2.19.

Consider KKFLTLGSKFRYSGYTQAQTRRAS [R15Y], for which the protein stability index was found to be 2.16.

For the variant KKFLTLGSKFRYSGMTQAQTRRAS [R15M], the protein stability index turned out to be 2.49.

On to KKFLTLGSKFRYSPRTQAQTRRAS [G14P], for which the protein stability index came to 3.46.

For the variant KKFLTLGSKFRYSSRTQAQTRRAS [G14S], the protein stability index is 3.34.

With KKFLTLGSKFRYSWRTQAQTRRAS [G14W], the protein stability index came to 4.87.

Regarding KKFLTLGSKFRYSFRTQAQTRRAS [G14F], the protein stability index stood at 2.56.

Take KKFLTLGSKFRYSVRTQAQTRRAS [G14V]: the protein stability index was found to be 2.96.

As for KKFLTLGSKFRYSLRTQAQTRRAS [G14L], the protein stability index was 4.04.

As to KNFLTLGSKFRYSGRTQAQTRRAS [K2N], the protein stability index was 2.85.

As for KYFLTLGSKFRYSGRTQAQTRRAS [K2Y], the protein stability index stood at 2.22.

On to KVFLTLGSKFRYSGRTQAQTRRAS [K2V], for which the protein stability index was found to be 2.23.

For the variant KFFLTLGSKFRYSGRTQAQTRRAS [K2F], the protein stability index is 4.04.

On to KGFLTLGSKFRYSGRTQAQTRRAS [K2G], for which the protein stability index amounted to 2.59.

As for KCFLTLGSKFRYSGRTQAQTRRAS [K2C], the protein stability index was determined as 2.6.

Regarding KKFLTLGSKFRYSGRTCAQTRRAS [Q17C], the protein stability index was 2.94.

Consider KKFLTLGSKFRYSGRTGAQTRRAS [Q17G], for which the protein stability index turned out to be 2.63.

For KKFLTLISKFRYSGRTQAQTRRAS [G7I], the protein stability index was 1.35.

Regarding KKFLTLTSKFRYSGRTQAQTRRAS [G7T], the protein stability index stood at 3.58.

In the case of KKFLTLDSKFRYSGRTQAQTRRAS [G7D], the protein stability index came out at 3.3.

In the case of KKFLTLMSKFRYSGRTQAQTRRAS [G7M], the protein stability index came to 2.09.

Turning to KKFLTLYSKFRYSGRTQAQTRRAS [G7Y], the protein stability index was 3.02.

As for KKFLTLGSKFRPSGRTQAQTRRAS [Y12P], the protein stability index was 3.23.

KKFLTSGSKFRYSGRTQAQTRRAS [L6S]: the protein stability index is 2.52.

With KKFLTYGSKFRYSGRTQAQTRRAS [L6Y], the protein stability index came out at 2.48.

Take KKFLTVGSKFRYSGRTQAQTRRAS [L6V]: the protein stability index came to 3.61.

For the variant KKFLTIGSKFRYSGRTQAQTRRAS [L6I], the protein stability index amounted to 2.75.

With KKFLTLGSKFRYKGRTQAQTRRAS [S13K], the protein stability index came to 3.96.

Take KKFLTLGSKFRYAGRTQAQTRRAS [S13A]: the protein stability index worked out at 2.63.

KKFLTLGSKFRYFGRTQAQTRRAS [S13F]: the protein stability index turned out to be 2.67.

With KKFLTLGSKFRYWGRTQAQTRRAS [S13W], the protein stability index was 2.91.

Regarding KKFLTLGSKFRYSGRTQAYTRRAS [Q19Y], the protein stability index stood at 2.22.

As for KKFLTLGSKFRYSGRTQAITRRAS [Q19I], the protein stability index amounted to 2.37.

Turning to KKFLTLGSKFRYSGRTQACTRRAS [Q19C], the protein stability index stood at 2.77.

For the variant KKFLTLGSKFRYSGRTQAATRRAS [Q19A], the protein stability index was 2.68.

On to KKFLTLGSKFRYSGRTQAWTRRAS [Q19W], for which the protein stability index is 2.58.

On to KKFLTLGSKTRYSGRTQAQTRRAS [F10T], for which the protein stability index turned out to be 3.54.

KKFLTLGSKDRYSGRTQAQTRRAS [F10D]: the protein stability index was determined as 3.88.

Turning to KKFLTLGSKPRYSGRTQAQTRRAS [F10P], the protein stability index came out at 4.07.

Regarding KKFLTLGSKNRYSGRTQAQTRRAS [F10N], the protein stability index is 3.59.

KKFLTLGSKFRYSGRTQAQTRRAW [S24W]: the protein stability index was determined as 2.57.

As to KKFLTLGSKFRYSGRTQAQTRRAT [S24T], the protein stability index is 3.46.

As for KKFLTLGSKFRYSGRTQAQTRRAF [S24F], the protein stability index was determined as 2.36.

For KKFLTLGSMFRYSGRTQAQTRRAS [K9M], the protein stability index is 2.27.

In the case of KKFLTLGSFFRYSGRTQAQTRRAS [K9F], the protein stability index worked out at 2.13.

For KKFLTLGSQFRYSGRTQAQTRRAS [K9Q], the protein stability index came out at 1.79.

In the case of KKFLTLGSLFRYSGRTQAQTRRAS [K9L], the protein stability index turned out to be 2.29.

Regarding KKFLTLGSTFRYSGRTQAQTRRAS [K9T], the protein stability index worked out at 2.13.

Take KKFLTLGSKFRYSGRTQAQTRNAS [R22N]: the protein stability index was 1.87.

For KKFLTLGSKFRYSGRTQAQTRYAS [R22Y], the protein stability index was 2.13.

Turning to KKFLTLGSKFRYSGRAQAQTRRAS [T16A], the protein stability index is 2.53.

As to KKFLTLGSKFRYSGRQQAQTRRAS [T16Q], the protein stability index is 2.94.

Regarding KKFLTLGSKFRYSGREQAQTRRAS [T16E], the protein stability index worked out at 3.38.

Take FKFLTLGSKFRYSGRTQAQTRRAS [K1F]: the protein stability index was determined as 2.45.

On to DKFLTLGSKFRYSGRTQAQTRRAS [K1D], for which the protein stability index came to 2.43.

Consider KKFLHLGSKFRYSGRTQAQTRRAS [T5H], for which the protein stability index is 2.82.

In the case of KKFLNLGSKFRYSGRTQAQTRRAS [T5N], the protein stability index turned out to be 3.47.

Consider KKFLGLGSKFRYSGRTQAQTRRAS [T5G], for which the protein stability index amounted to 3.25.

KKFLFLGSKFRYSGRTQAQTRRAS [T5F]: the protein stability index was determined as 1.84.

As for KKFLQLGSKFRYSGRTQAQTRRAS [T5Q], the protein stability index came out at 3.38.

Take KKFLMLGSKFRYSGRTQAQTRRAS [T5M]: the protein stability index stood at 2.74.

As for KKFLDLGSKFRYSGRTQAQTRRAS [T5D], the protein stability index worked out at 1.62.

In a further data set the parent is B2. The description is as above. To be noted: c terminus: a fixed tail appended.
Consider RLLRFSSQIHNNGQSDFRPINGRH [K20I], for which the protein stability index stood at 2.17.

As for RLLRFSSQIHNNGQSDFRPTNGRH [K20T], the protein stability index was found to be 3.01.

Consider RLLRFSSQIHNNGQSDFRPMNGRH [K20M], for which the protein stability index was found to be 1.92.

As for RLLRFSSQIHNNGQSDFRPNNGRH [K20N], the protein stability index worked out at 2.92.
